Assay results taken from paper PMC13676896 (2026).

Biological target: T1, MYO10 motor domain 1-741 (Homo sapiens, UniProt Q9HD67)
T1 chain: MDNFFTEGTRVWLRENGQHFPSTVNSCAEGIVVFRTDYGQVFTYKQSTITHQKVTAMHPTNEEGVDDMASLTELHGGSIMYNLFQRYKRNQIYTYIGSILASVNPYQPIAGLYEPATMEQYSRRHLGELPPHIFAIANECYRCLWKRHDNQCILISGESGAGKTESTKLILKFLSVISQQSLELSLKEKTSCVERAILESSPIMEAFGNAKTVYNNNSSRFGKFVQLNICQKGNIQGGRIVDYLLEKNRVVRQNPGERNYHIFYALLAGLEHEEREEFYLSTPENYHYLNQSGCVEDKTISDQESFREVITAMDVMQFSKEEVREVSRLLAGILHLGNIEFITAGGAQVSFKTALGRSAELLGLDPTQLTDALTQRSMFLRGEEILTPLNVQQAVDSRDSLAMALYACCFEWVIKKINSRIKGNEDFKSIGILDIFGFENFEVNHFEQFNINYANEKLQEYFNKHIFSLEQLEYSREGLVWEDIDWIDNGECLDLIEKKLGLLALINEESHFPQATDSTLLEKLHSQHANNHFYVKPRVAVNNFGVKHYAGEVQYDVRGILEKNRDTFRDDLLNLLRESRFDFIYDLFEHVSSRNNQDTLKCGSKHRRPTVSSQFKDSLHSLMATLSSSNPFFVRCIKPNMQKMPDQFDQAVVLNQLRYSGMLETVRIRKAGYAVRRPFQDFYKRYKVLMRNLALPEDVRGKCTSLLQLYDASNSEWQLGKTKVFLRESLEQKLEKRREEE
Test: MST

B1: CCT8 (protein)
chain: ALHVPKAPGFAQMLKEGAKHFSGLEEAVYRNIQACKELAQTTRTAYGPNGMNKMVINHLEKLFVTNDAATILRELEVQHPAAKMIVMASHMQEQEVGDGTNFVLVFAGALLELAEELLRIGLSVSEVIEGYEIACRKAHEILPNLVCCSAKNLRDIDEVSSLLRTSIMSKQYGNEVFLAKLIAQACVSIFPDSGHFNVDNIRVCKILGSGISSSSVLHGMVFKKETEGDVTSVKDAKIAVYSCPFDGMITETKGTVLIKTAEELMNFSKGEENLMDAQVKAIADTGANVVVTGGKVADMALHYANKYNIMLVRLNSKWDLRRLCKTVGATALPRLTPPVLEEMGHCDSVYLSEVGDTQVVVFKHEKEDGAISTIVLRGSTDNLMDDIERAVDDGVNTFKVLTRDKRLVPGGGATEIELAKQITSYGETCPGLEQYAIKKFAEAFEAIPRALAENSGVKANEVISKLYAVHQEGNKNVGLDIEAEVPAVKDMLEAGILDTYLGKYWAIKLATNAAVTVLRVDQIIMAKPAGGPKPPSGKKDWDDDQND
Kd: 1160 nM
